The target in assay [1] is cellular receptor of fMLP (human). Kind of assay: 3H-fMLP bound to cells, Exp. 1, no inhibitor.
Assay [2] has the same target. Kind of assay: 3H-fMLP bound to cells, Exp. 1, with unlabeled fMLP.
Assay [3] deals with cellular receptors of MIP-1α on primary human monocytes and THP-1 cells (human). Kind of assay: 125I-MIP-1α bound to THP-1 cells, Exp. 3, no inhibitor.
Assay [4] has the same target. Nature of the assay: 125I-MIP-1α bound to human monocytic cells, Exp. 1, no inhibitor.
The target is the same in assay [5]. Kind of assay: 125I-MIP-1α bound to primary human monocytes, Exp. 1, no inhibitor.
Assay [6] shares this target. Kind of assay: 125I-MIP-1α bound to primary human monocytes, Exp. 2, no inhibitor.
For assay [7] the target is unchanged. Kind of assay: 125I-MIP-1α bound to THP-1 cells, Exp. 3, 6500X excess unlabeled MIP-1α (background control).
Assay [8] shares this target. Kind of assay: 125I-MIP-1α bound to primary human monocytes, Exp. 1, 6500X excess unlabeled MIP-1α (background control).
Assay [9] has the same target. Nature of the assay: 125I-MIP-1α bound to primary human monocytes, Exp. 2, 6500X excess unlabeled MIP-1α (background control).
The target is the same in assay [10]. Nature of the assay: 125I-MIP-1α bound to human monocytic cells, Exp. 1, 6500X molar excess unlabeled MIP-1α (background control).

As to fMLP (peptide), the Surface Bound fMLP in assay [1] was 374 cpm; in [2] it was 132 cpm.
In the case of “human MIP-1α (from UniProt P10147 24-92) (ligand)”, the Surface Bound MIP-1α in assay [3] turned out to be 9940 cpm; in [4], 12200 cpm; in assay [5], 4700 cpm; in [6], 7710 cpm; in assay [7] it was 1040 cpm; in assay [8] it was 470 cpm. The results for the Surface Bound MIP-1α in [9] and in assay [10] were 410 cpm and 444 cpm, respectively.

(Values after EP1034789A1.)
